Reference: patent US20210292385A1 (WNTRX PHARMACEUTICALS, published 2021)
Bridge positions count the residues as written; N and C are the ends. Square brackets hold non-standard residues; d marks the D form. 2Nal = N[C@@H](Cc1ccc2ccccc2c1)C(=O)O; S5 = C=CCCC[C@](C)(N)C(=O)O; βAla = NCCC(=O)O

Columns and labels:
[1] = biological target: β-catenin protein (ALPHA screening assay) (UniProt P35222); assay: ALPHA screen: biotinylated peptide on streptavidin donor beads, β-catenin on protein A acceptor beads via anti-β-catenin antibody
[2] = biological target: T1, β-catenin in cells (LEF/TCF-bla HCT-116 reporter cells; Colo320DM cells) (UniProt P35222 2-781, limits assumed); assay: cell-based or functional assay
T1 sequence (looked up): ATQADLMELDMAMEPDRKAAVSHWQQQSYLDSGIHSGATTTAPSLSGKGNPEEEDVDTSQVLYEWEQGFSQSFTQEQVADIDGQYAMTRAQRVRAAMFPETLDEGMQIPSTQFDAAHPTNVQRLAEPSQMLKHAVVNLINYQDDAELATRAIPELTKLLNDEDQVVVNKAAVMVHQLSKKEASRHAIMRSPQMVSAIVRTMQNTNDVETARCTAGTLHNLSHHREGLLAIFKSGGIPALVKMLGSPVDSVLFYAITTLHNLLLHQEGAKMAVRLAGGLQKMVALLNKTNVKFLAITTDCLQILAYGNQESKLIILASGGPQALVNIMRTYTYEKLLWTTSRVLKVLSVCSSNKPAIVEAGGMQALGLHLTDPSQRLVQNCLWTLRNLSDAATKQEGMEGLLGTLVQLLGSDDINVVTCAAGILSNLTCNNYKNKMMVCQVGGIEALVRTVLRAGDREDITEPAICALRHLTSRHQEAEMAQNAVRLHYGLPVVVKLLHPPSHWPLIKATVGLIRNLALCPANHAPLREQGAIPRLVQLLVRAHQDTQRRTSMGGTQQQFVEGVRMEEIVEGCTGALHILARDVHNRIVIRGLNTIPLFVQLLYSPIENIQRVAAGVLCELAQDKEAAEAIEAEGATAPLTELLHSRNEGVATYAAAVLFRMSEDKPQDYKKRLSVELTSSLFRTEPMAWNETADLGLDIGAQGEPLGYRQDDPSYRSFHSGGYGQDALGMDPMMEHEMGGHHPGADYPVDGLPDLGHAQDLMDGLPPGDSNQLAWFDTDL

[3] = biological target: T1, β-catenin in cells (LEF/TCF-bla HCT-116 …); assay: cell-based or functional assay; remark: listed apart in the source
[4] = biological target: T2, Histidine-tagged β-catenin (HTRF assay) (UniProt P35222 1-781, limits assumed); assay: HTRF assay (Cisbio): biotin-labeled peptide, His-tagged β-catenin, Eu-labeled anti-His antibody and SA-XL665
T2 construct: also called His-tag protein; not shown: histidine tag
T2 sequence (looked up): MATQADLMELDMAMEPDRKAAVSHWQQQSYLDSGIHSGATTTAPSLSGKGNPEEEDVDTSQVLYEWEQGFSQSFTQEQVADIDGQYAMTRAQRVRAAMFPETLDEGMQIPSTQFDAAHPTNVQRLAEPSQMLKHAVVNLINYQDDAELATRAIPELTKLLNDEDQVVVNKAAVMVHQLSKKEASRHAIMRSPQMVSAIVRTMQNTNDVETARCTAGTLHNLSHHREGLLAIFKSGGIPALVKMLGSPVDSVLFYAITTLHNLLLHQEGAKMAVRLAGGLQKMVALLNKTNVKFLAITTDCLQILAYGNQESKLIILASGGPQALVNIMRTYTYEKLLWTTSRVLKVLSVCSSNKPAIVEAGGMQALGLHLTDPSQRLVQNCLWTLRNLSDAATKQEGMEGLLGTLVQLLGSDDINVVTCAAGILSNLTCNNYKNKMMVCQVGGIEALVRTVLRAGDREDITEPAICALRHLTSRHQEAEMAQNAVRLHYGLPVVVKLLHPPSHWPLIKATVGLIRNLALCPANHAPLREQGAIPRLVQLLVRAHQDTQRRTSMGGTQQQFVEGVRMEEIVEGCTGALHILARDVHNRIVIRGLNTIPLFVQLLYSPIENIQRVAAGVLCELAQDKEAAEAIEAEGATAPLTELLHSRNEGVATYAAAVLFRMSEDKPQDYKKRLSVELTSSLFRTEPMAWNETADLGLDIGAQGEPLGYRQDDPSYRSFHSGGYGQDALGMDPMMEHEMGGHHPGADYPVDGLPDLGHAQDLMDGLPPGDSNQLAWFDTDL

[5] = biological target: T3, β-catenin protein (ALPHA screening assay) (UniProt P35222 1-781, limits assumed); assay: ALPHA screen: biotinylated peptide on streptavidin donor beads, β-catenin on protein A acceptor beads via anti-β-catenin antibody
T3 sequence (looked up): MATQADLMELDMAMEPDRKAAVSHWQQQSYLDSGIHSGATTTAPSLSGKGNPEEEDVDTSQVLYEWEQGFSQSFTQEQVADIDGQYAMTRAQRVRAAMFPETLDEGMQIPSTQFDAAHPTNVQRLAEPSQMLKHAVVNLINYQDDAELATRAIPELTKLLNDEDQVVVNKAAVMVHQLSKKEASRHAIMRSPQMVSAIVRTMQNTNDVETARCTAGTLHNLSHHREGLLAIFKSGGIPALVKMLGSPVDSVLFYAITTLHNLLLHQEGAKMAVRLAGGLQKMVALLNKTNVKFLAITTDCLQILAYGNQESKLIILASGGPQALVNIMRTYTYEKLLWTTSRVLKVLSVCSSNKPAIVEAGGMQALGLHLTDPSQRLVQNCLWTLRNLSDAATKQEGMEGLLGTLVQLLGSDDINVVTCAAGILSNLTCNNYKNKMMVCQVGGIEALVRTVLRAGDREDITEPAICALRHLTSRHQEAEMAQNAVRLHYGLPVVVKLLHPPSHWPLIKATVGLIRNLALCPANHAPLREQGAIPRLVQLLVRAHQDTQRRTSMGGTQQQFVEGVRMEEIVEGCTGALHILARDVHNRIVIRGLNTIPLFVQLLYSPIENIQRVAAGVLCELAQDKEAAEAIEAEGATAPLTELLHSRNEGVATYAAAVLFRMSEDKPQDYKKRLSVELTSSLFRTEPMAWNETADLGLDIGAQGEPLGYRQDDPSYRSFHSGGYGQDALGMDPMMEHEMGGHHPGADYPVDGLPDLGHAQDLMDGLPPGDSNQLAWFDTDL

Molecule: full-length HD2 domain of human BCL9 protein (peptide)
- Kd [1]: 20 nM
- signal versus background ratio [1]: 180 fold

B1: WX-020 (peptide)
peptide: Ac-LR[S5]IQR[S5]L-NH2
modifications: staple 3-7
SMILES: CC[C@H](C)[C@@H]1NC(=O)[C@@](C)(NC(=O)[C@H](CCCNC(=N)N)NC(=O)[C@H](CC(C)C)NC(C)=O)CCCC=CCCC[C@@](C)(C(=O)N[C@@H](CC(C)C)C(N)=O)NC(=O)[C@H](CCCNC(=N)N)NC(=O)[C@H](CCC(N)=O)NC1=O
- IC50, CellTiterGlo cell viability assay, Colo320DM cells [2]: 12400 nM
- IC50, Wnt transcription assay (GeneBLAzer reporter, procedures of Example 4.1) [2]: 1580 nM

Molecule: Ac-LQTLR[S5]IQR[S5]L[2Nal]-NH2 (staple 6-10; also: tested as trifluoroacetic, acetate and hydrochloric salts) [WX-024]
- IC50, cell-based Wnt transcription inhibition assay, acetate salt form of WX-024 [2]: 292 nM
- IC50, cell-based Wnt transcription inhibition assay, hydrochloric salt of WX-024 [2]: 313 nM
- IC50, GeneBLAzer beta-lactamase reporter assay, LEF-TCF-bla HCT116 cells [3]: 191 nM

B2: WX-024 (conjugated with biotin) (peptide)
peptide: Ac-LQTLR[S5]IQR[S5]L[2Nal]-NH2
modifications: staple 6-10; also: coupled to biotin (site not given here)
notes: also called biotinylated WX-024; BCL9 peptide labeled with biotin
- Kd [4]: 4.21 nM

B3: WX-020, biotinylated (ALPHA screen) (peptide)
peptide: Ac-LR[S5]IQR[S5]L-NH2
modifications: staple 3-7; also: biotinylated with a PEG linker, site not given here
notes: The general description of the ALPHA assay says that a biotinylated polypeptide is used
- Kd [5]: 80 nM

B4: WX-021 (peptide)
peptide: Ac-LR[S5]IQR[S5]L[2Nal][βAla][βAla]-NH2
modifications: staple 3-7
SMILES: CC[C@H](C)[C@@H]1NC(=O)[C@@](C)(NC(=O)[C@H](CCCNC(=N)N)NC(=O)[C@H](CC(C)C)NC(C)=O)CCCC=CCCC[C@@](C)(C(=O)N[C@@H](CC(C)C)C(=O)N[C@@H](Cc2ccc3ccccc3c2)C(=O)NCCC(=O)NCCC(N)=O)NC(=O)[C@H](CCCNC(=N)N)NC(=O)[C@H](CCC(N)=O)NC1=O
- IC50, GeneBLAzer beta-lactamase reporter assay, LEF/TCF-bla HCT-116 cells [2]: 764 nM
